Test results from the supplement of paper PMC10126150.
± gives the standard deviation of the averaged measurements.

Tested on: ATP
Assay: switch fluorescence ratio, 500 uM ATP over buffer (Cy3 cluster intensity, sum of 5 cycles each) (fold (ratio)); higher = stronger signal-on switching upon ATP binding; sequences stand for … in TCGTCGGCAGCGTCAGATGTGTATAAGAGACAGTTTTTTTTTTTTTTTTTTTTTTTTT…TC
Settings: aptamer strand: ATP DNA aptamer (quencher-CACCTGGGGGAGTATTGCGGAGGAAGG + anchor), 100 nM annealed; ATP concentration: 500 uM
Procedure, shortened: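 After annealing to 100 nM quencher-labelled ATP aptamer, Cy3-labelled switching-strand clusters on a modified Illumina MiSeq flow-cell were imaged in selection buffer. A second image followed after 15 min with 500 uM ATP at 22 °C, and five such buffer/ATP cycles were done, each separated by NaOH stripping and re-annealing. The fluorescence ratio, averaged per switch-domain sequence, is summed target-cycle over summed buffer-cycle Cy3 intensity per cluster, with clusters outside 100-1000 RFU excluded.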
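Further: ATP exposure 15 min at 22 °C before imaging.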

Point of comparison: CGATTTGCTT, switch fluorescence ratio 0.969 ± 0.058. Against it:
- ACCATCCGGC — higher, 1.12 ± 0.012
- TCTGAAAATG — within error, 0.998 ± 0.012
- ATTGGGAAGA — within error, 1.02 ± 0.028
- TGGGCTTTGG — within error, 0.9992 ± 0.009
- GCCTGTATAG — within error, 0.9958 ± 0.0052
- TGTGGGGGTC — within error, 0.965 ± 0.042
- CCGGGTTTTT — within error, 1.12 ± 0.13
- TCGTGCGGGG — the same, 0.969 ± 0.016
- TGGATGAAGT — within error, 1 ± 0.047
- AAATAGTGG — within error, 0.9626 ± 0.0063
- TATAGGGACA — higher, 1.2 ± 0.03
- AGGATTGGGG — within error, 1 ± 0.043
- ATTCAGGTC — within error, 1 ± 0.038
- TTTTTGGTCC — within error, 0.992 ± 0.011
- GTTGAATTGG — within error, 0.985 ± 0.026
- TGCGGCTG — within error, 1.05 ± 0.039
- TTCGTCTTTT — within error, 0.98 ± 0.016
- TGATTGGTTT — within error, 1 ± 0.011
- AACCTGGGGG — within error, 1.1 ± 0.15
- ATTTTGGCGA — within error, 1.02 ± 0.029
- TGGTTTGGCC — within error, 0.97 ± 0.018
- AGTTTGAGTA — within error, 1.01 ± 0.027
- TGAGGTTGGC — within error, 1.01 ± 0.023
- TCCTTTATAC — higher, 3.09 ± 0.71
- CTAACTGTTA — within error, 0.99 ± 0.015
- CGATTGGTAC — higher, 1.25 ± 0.023
- TTTAACTGCG — within error, 1.02 ± 0.036
- ATAAAGCATA — within error, 1.03 ± 0.026
- TGCGCCGTTT — within error, 1.01 ± 0.017
- TTGGTAGGGC — within error, 0.97013 ± 0.0006
- GTAGTCTTAG — within error, 0.9943 ± 0.0097
- TGACGCGCGT — within error, 1.014 ± 0.0018
- TGGGCGATAT — within error, 1.95 ± 1.1
- TAATGGTGT — within error, 1.02 ± 0.041
- GGGGGGAACG — within error, 0.971 ± 0.024
- GAGTTGTTGT — within error, 0.996 ± 0.018
- GTTTTTTATC — within error, 1 ± 0.029
- AGAGTTGTGA — within error, 1.02 ± 0.012
- GCGGCTTGGG — within error, 1.03 ± 0.055
- CGGTTCGCGT — within error, 0.972 ± 0.031
- CCCATTTTTT — within error, 1 ± 0.049
- TGTGGCAAAA — within error, 1.015 ± 0.01
- CATTTGAGGT — within error, 1 ± 0.027
- CGCATTCTGC — higher, 1.17 ± 0.091
- ACGTTGGAGA — higher, 1.06 ± 0.0051
- AATGTAAGGA — within error, 1.03 ± 0.065
- GCGATGAGAG — within error, 1.03 ± 0.026
- GTGGGGGCAT — within error, 1 ± 0.041
- CGACAAGCTT — within error, 1.03 ± 0.016
- TTTTTGAACG — within error, 1.02 ± 0.018
- ATGGGGAATG — within error, 0.984 ± 0.016
- AATGCGGGGG — within error, 1 ± 0.025
- CTGTGAGGCT — within error, 1 ± 0.042
- TCGTGGACGC — within error, 0.995 ± 0.031
- AGGGGAGTTT — within error, 1 ± 0.041
- TAGGGGGGGG — within error, 1.02 ± 0.073
- CGGGATAATG — within error, 0.994 ± 0.021
- TTTAGCCATT — within error, 0.992 ± 0.012
- ACAGGTACAT — higher, 1.12 ± 0.034
- CGACGGGGCT — higher, 1.13 ± 0.049
- ACTTAGCGGT — within error, 1.07 ± 0.051
- GGCATTCGAT — within error, 0.981 ± 0.03
- TATGGGCTGG — within error, 0.979 ± 0.049
- TCCTAAACGT — higher, 1.072 ± 0.0029
- TGACAGTTGG — within error, 1.017 ± 0.0055
- TATAAGACAT — within error, 1.03 ± 0.038
- TGGCCGTGCT — within error, 0.904 ± 0.071
- ATGTCACAAA — within error, 1.03 ± 0.059
- CATACAAGGG — within error, 1.019 ± 0.0029
- GAGGGCAGCA — within error, 1.01 ± 0.048
- TGGGGTGACA — within error, 1.01 ± 0.054
- CGTGGGGGAC — within error, 0.997 ± 0.033
- TAGGGGAGGA — within error, 0.993 ± 0.035
- GTAGGGGTCA — within error, 0.976 ± 0.054
- ACCGGGGCTC — within error, 1.05 ± 0.052
- TGTTCTAGA — within error, 0.987 ± 0.053
- TTGCATTAGG — within error, 1.28 ± 0.31
- GGGAGAGCGT — within error, 0.966 ± 0.018
- TTTGTTGCCA — within error, 0.988 ± 0.0019
- AAGGGGGTCT — within error, 1.02 ± 0.083
- TAGTGCGGTA — higher, 1.036 ± 0.0022
- GCTTGCATGC — within error, 1.04 ± 0.022
- TAGCTGATGT — within error, 1.03 ± 0.02
- GGTATCGAGG — within error, 1.01 ± 0.015
- ATCGGAGCCA — within error, 1.02 ± 0.047
- GATGTACACG — within error, 1.013 ± 0.003
- TGATAAGGAG — within error, 1.01 ± 0.012
- GTTTGGGGTG — within error, 0.999 ± 0.043
- TTCTTTTGTA — within error, 1.06 ± 0.076
- TGGGAAGTTG — within error, 0.956 ± 0.04
- GGGCGAGTAT — within error, 1.016 ± 0.0029
- TCGTTGAACG — within error, 0.973 ± 0.03
- TATGTGATGG — within error, 0.9874 ± 0.0053
- AGCCTAAGAT — within error, 0.963 ± 0.012
- TATAAGGGTT — within error, 1.01 ± 0.017
- CCTGGGGGAG — within error, 1.05 ± 0.11
- AAGCGCAGAC — higher, 2.32 ± 0.079
- GATTGATTTT — within error, 1.02 ± 0.044
- ACGGGGAGGT — within error, 0.981 ± 0.04
- GCTGATTGGA — within error, 0.979 ± 0.055
- AGGGGCTGTG — within error, 0.9991 ± 0.0074
- GGGGTAGCCT — within error, 1 ± 0.04
- GTGATAAGAG — within error, 0.999 ± 0.013
- AACTTGTTTT — within error, 1.02 ± 0.032
- GGGGGCTCAG — within error, 0.9659 ± 0.0052
- GGTGAAGACC — within error, 0.9598 ± 0.0086
- ACTACGTGGG — higher, 1.0708 ± 0.00037
- AAAGCAGGGG — within error, 1.06 ± 0.037
- AAGGTGGGTA — within error, 0.99 ± 0.031
- CTGGATTGAG — within error, 0.956 ± 0.027
- TTTCTGTGAT — within error, 1.004 ± 0.003
- TAAAGTTACG — higher, 1.06 ± 0.032
- TTGCACTGAC — higher, 1.53 ± 0.21
- CCCTGGGTCT — within error, 1.028 ± 0.0089
- GATGAGTCTG — within error, 0.98 ± 0.044
- ATGCACACCG — higher, 1.087 ± 0.0016
- TTTCATGGTG — higher, 1.0484 ± 0.00021
- TTACTCGCTG — higher, 1.07 ± 0.027
- CCATACGTCA — higher, 1.25 ± 0.054
- GGGGCTATAT — within error, 1.39 ± 0.62
- GGGCGGAGCG — within error, 0.999 ± 0.036
- TTTATGACAT — within error, 0.971 ± 0.029
- TCATTCAAGG — within error, 1.02 ± 0.013
- ACTGTGTTTG — within error, 0.991 ± 0.036
- ACGGGCAATG — higher, 1.32 ± 0.16
- GTTAGTGGGG — within error, 0.992 ± 0.014
- TAAAGCAGGG — within error, 1.01 ± 0.023
- GCTTGGTGTC — higher, 1.05 ± 0.014
- TGTACGTTGG — within error, 1.26 ± 0.37
- AATGGTGGCC — within error, 1 ± 0.018
- CGCCTCATGA — within error, 1.04 ± 0.029
- GACTTGGGAT — higher, 1.034 ± 0.0019
- CGGTGCTGCG — higher, 1.065 ± 0.0039
- TACTATTTTC — within error, 0.984 ± 0.042
- TGGGGGACTT — within error, 0.99 ± 0.039
- AAACCCGATA — within error, 1.05 ± 0.025
- GCACGAGGAA — higher, 1.043 ± 0.0063
- TTAGGATGTG — within error, 0.984 ± 0.022
- GTGGGAGATA — within error, 1.01 ± 0.038
- ATTTTTTGAA — within error, 0.997 ± 0.019
- TGAGTAATTT — within error, 1.01 ± 0.037
- AATTGTAGTA — within error, 0.996 ± 0.051
- TGAGAGTTTA — within error, 1.024 ± 0.0062
- TTGTGCGCGC — within error, 1.022 ± 0.0018
- CGTTGTCGTT — within error, 1.01 ± 0.055
- TAACGACCGC — higher, 1.24 ± 0.03
- TTTAGGCCGT — within error, 1.05 ± 0.066
- GTTAGGAGTT — within error, 0.941 ± 0.039
- ACGTAGGTTT — within error, 1.03 ± 0.046
- AATTGGGGGT — within error, 0.992 ± 0.038
- GGGTTTGTA — within error, 0.965 ± 0.04
- CATTTTATAA — within error, 0.999 ± 0.014
- AGGTGTCGCG — within error, 1.01 ± 0.02
- AAACTACTCT — within error, 1.03 ± 0.02
- GTGGTATTAT — within error, 1.01 ± 0.021
- CGTGTTGGGG — within error, 0.971 ± 0.039
- GGTGGGACAA — within error, 0.966 ± 0.042
- CGGTGGTTGT — within error, 0.9948 ± 0.0052
- GGAAACTCGG — within error, 0.986 ± 0.029
- GTTGCTGTGG — within error, 0.985 ± 0.026
- TTGGGGGCCA — within error, 0.9898 ± 0.0041
- TGCTGGCGGC — within error, 0.982 ± 0.03
- TATAGCCGAA — within error, 1 ± 0.083
- GGGCATTGCT — within error, 0.9747 ± 0.0069
- TGCCATAGG — within error, 1.008 ± 0.0032
- ATGGACAGGC — within error, 0.912 ± 0.014
- GGATAGGTTT — within error, 1.01 ± 0.034
- TTATGTGGTG — within error, 0.974 ± 0.014
- GGGTAGCTAT — within error, 0.9739 ± 0.0049
- GCGTACTCAA — higher, 1.11 ± 0.043
- GCTGTTGTTC — within error, 0.979 ± 0.041
- TTGCCAGATT — within error, 0.994 ± 0.037
- CTGGGGGTTA — within error, 0.999 ± 0.059
- AGCAAAACGT — within error, 1.17 ± 0.19
- TATAGTATGT — within error, 1.01 ± 0.015
- TGAGGCGGGT — higher, 1.05 ± 0.016
- CGAGTCCCAC — within error, 1 ± 0.12
- GCTGTAAGTA — within error, 0.988 ± 0.017
- AGCTTGGGTT — within error, 0.98 ± 0.018
- ACCAAAGGCG — within error, 1.04 ± 0.043
- TAAGGTTTGG — within error, 0.9862 ± 0.0092
- AAGATGAAT — within error, 0.975 ± 0.04
- AGGCGGTAGC — within error, 1.02 ± 0.0037
- TAAGCTGCCA — within error, 1.02 ± 0.015
- GGGGCTGTGG — within error, 0.9933 ± 0.0087
- ACAACGCGT — within error, 0.982 ± 0.013
- CAGTTCACCT — higher, 1.082 ± 0.0063
- TAGAGGCGTT — within error, 0.986 ± 0.012
- CTTGGCTGTT — within error, 0.986 ± 0.018
- AACGCTTCAC — higher, 1.65 ± 0.054
- AGTAGAATCG — within error, 0.992 ± 0.033
- GGAGTGGGAC — within error, 1.12 ± 0.14
- AAGTTGAGTG — within error, 0.9472 ± 0.0088
- AATCTGTGTG — within error, 0.963 ± 0.042
- TTTGAACGTG — the same, 0.969 ± 0.017
- ACAGACTCGC — within error, 1.01 ± 0.019
- TGATGTTGT — within error, 1.005 ± 0.0071
- TAGTGTGTTG — within error, 0.996 ± 0.011
- AGGGAGCTGT — within error, 1.023 ± 0.0015
